Source: the supplement of paper PMC11316812
± gives the standard deviation of the averaged measurements.

Assays:
MCF7 = test: percentage of EdU-negative (G0-arrested) nuclei per well, 72 h; higher = more G0 arrest; details: reference: sequence is the full UniProt precursor, the tested protein was the secreted form or ectodomain
hTERT-HMEC = test: as above; details: reference: sequence is the full UniProt precursor, the tested protein was the secreted form or ectodomain
[1] = protein concentration 0.03125 µM
[2] = protein concentration 0.3125 µM
[3] = protein concentration 0.0225 µM
[4] = protein concentration 0.0272075 µM
[5] = protein concentration 0.272075 µM
[6] = protein concentration 0.012015 µM
[7] = protein concentration 0.12015 µM
[8] = protein concentration 0.0155 µM
[9] = protein concentration 0.0357143 µM
[10] = protein concentration 0.357143 µM
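Further: secreted proteins added to cultured cells, EdU pulse at the end, nuclei found by Hoechst imaging, EdU status from nuclear versus surrounding ring intensity ratio, PBS as neutral control.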

Chain of Q9UBP4 (chain, as listed by the source): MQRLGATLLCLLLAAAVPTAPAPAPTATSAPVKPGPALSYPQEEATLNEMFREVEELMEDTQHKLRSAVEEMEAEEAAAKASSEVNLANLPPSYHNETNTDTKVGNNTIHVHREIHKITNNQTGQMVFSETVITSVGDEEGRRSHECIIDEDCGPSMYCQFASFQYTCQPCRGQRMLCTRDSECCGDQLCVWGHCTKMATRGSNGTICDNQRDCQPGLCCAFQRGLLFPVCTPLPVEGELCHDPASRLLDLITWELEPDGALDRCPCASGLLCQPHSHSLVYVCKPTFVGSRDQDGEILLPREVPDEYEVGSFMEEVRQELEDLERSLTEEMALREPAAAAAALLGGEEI

## MTRALCSALRQALLLLAAAAELSPGLKCVCLLCDSSNFTCQTEGACWASVMLTNGKEQVIKSCVSLPELNAQVFCHSSNNVTKTECCFTDFCNNITLHLPTASPNAPKLGPMELAIIITVPVCLLSIAAMLTVWACQGRQCSYRKKKRPNVEEPLSECNLVNAGKTLKDLIYDVTASGSGSGLPLLVQRTIARTIVLQEIVGKGRFGEVWHGRWCGEDVAVKIFSSRDERSWFREAEIYQTVMLRHENILGFIAADNKDNGTWTQLWLVSEYHEQGSLYDYLNRNIVTVAGMIKLALSIASGLAHLHMEIVGTQGKPAIAHRDIKSKNILVKKCETCAIADLGLAVKHDSILNTIDIPQNPKVGTKRYMAPEMLDDTMNVNIFESFKRADIYSVGLVYWEIARRCSVGGIVEEYQLPYYDMVPSDPSIEEMRKVVCDQKFRPSIPNQWQSCEALRVMGRIMRECWYANGAARLTALRIKKTISQLCVKEDCKA [Q8NER5]
MCF7; [1]
  percentage of EdU-negative: 24.6 ± 0.8%
MCF7; [2]
  percentage of EdU-negative: 26 ± 0.41%
hTERT-HMEC; [1]
  percentage of EdU-negative: 4.41 ± 0.6%
hTERT-HMEC; [2]
  percentage of EdU-negative: 4.47 ± 0.65%

## MKTGHFEIVTMLLATMILVDIFQVKAEVLDMADNAFDDEYLKCTDRMEIKYVPQLLKEEKASHQQLDTVWENAKAKWAARKTQIFLPMNFKDNHGIALMAYISEAQEQTPFYHLFSEAVKMAGQSREDYIYGFQFKAFHFYLTRALQLLRKPCEASSKTVVYRTSQGTSFTFGGLNQARFGHFTLAYSAKPQAANDQLTVLSIYTCLGVDIENFLDKESERITLIPLNEVFQVSQEGAGNNLILQSINKTCSHYECAFLGGLKTENCIENLEYFQPIYVYNPGEKNQKLEDHSEKNWKLEDHGEKNQKLEDHGVKILEPTQIPGMKIPEPFPLPEDKSQGNINNPTPGPVPVPGPKSHPSASSGKLLLPQFGMVIILISVSAINLFVAL
MCF7; [3]
  percentage of EdU-negative: 24.99 ± 0.071%
MCF7; protein concentration 0.225 µM
  percentage of EdU-negative: 27.3 ± 1.4%
hTERT-HMEC; [3]
  percentage of EdU-negative: 4.51 ± 0.24%
hTERT-HMEC; protein concentration 0.225 µM
  percentage of EdU-negative: 5.22 ± 0.84%

## MEGAGPRGAGPARRRGAGGPPSPLLPSLLLLLLLWMLPDTVAPQELNPRGRNVCRAPGSQVPTCCAGWRQQGDECGIAVCEGNSTCSENEVCVRPGECRCRHGYFGANCDTKCPRQFWGPDCKELCSCHPHGQCEDVTGQCTCHARRWGARCEHACQCQHGTCHPRSGACRCEPGWWGAQCASACYCSATSRCDPQTGACLCHAGWWGRSCNNQCACNSSPCEQQSGRCQCRERTFGARCDRYCQCFRGRCHPVDGTCACEPGYRGKYCREPCPAGFYGLGCRRRCGQCKGQQPCTVAEGRCLTCEPGWNGTKCDQPCATGFYGEGCSHRCPPCRDGHACNHVTGKCTRCNAGWIGDRCETKCSNGTYGEDCAFVCADCGSGHCDFQSGRCLCSPGVHGPHCNVTCPPGLHGADCAQACSCHEDTCDPVTGACHLETNQRKGVMGAGALLVLLVCLLLSLLGCCCACRGKDPTRRPRPRRELSLGRKKAPHRLCGRFSRISMKLPRIPLRRQKLPKVVVAHHDLDNTLNCSFLEPPSGLEQPSPSWSSRASFSSFDTTDEGPVYCVPHEEAPAESRDPEVPTVPAEAPAPSPVPLTTPASAEEAIPLPASSDSERSASSVEGPGGALYARVARREARPARARGEIGGLSLSPSPERRKPPPPDPATKPKVSWIHGKHSAAAAGRAPSPPPPGSEAAPSPSKRKRTPSDKSAHTVEHGSPRTRDPTPRPPGLPEEATALAAPSPPRARARGRGPGLLEPTDAGGPPRSAPEAASMLAAELRGKTRSLGRAEVALGAQGPREKPAPPQKAKRSVPPASPARAPPATETPGPEKAATDLPAPETPRKKTPIQKPPRKKSREAAGELGRAGAPTL [Q96GP6]
MCF7; [3]
  percentage of EdU-negative: 25.7 ± 1.2%
MCF7; protein concentration 0.225 µM
  percentage of EdU-negative: 36.9 ± 0.76%
hTERT-HMEC; [3]
  percentage of EdU-negative: 3.85 ± 0.62%
hTERT-HMEC; protein concentration 0.225 µM
  percentage of EdU-negative: 18.5 ± 6.1%

## MTATEALLRVLLLLLAFGHSTYGAECFPACNPQNGFCEDDNVCRCQPGWQGPLCDQCVTSPGCLHGLCGEPGQCICTDGWDGELCDRDVRACSSAPCANNRTCVSLDDGLYECSCAPGYSGKDCQKKDGPCVINGSPCQHGGTCVDDEGRASHASCLCPPGFSGNFCEIVANSCTPNPCENDGVCTDIGGDFRCRCPAGFIDKTCSRPVTNCASSPCQNGGTCLQHTQVSYECLCKPEFTGLTCVKKRALSPQQVTRLPSGYGLAYRLTPGVHELPVQQPEHRILKVSMKELNKKTPLLTEGQAICFTILGVLTSLVVLGTVGIVFLNKCETWVSNLRYNHMLRKKKNLLLQYNSGEDLAVNIIFPEKIDMTTFSKEAGDEEI
MCF7; [4]
  percentage of EdU-negative: 27.1 ± 2.7%
MCF7; [5]
  percentage of EdU-negative: 26.7 ± 1.4%
hTERT-HMEC; [4]
  percentage of EdU-negative: 4.9 ± 0.42%
hTERT-HMEC; [5]
  percentage of EdU-negative: 6.02 ± 1.2%

## MAGRLLGKALAAVSLSLALASVTIRSSRCRGIQAFRNSFSSSWFHLNTNVMSGSNGSKENSHNKARTSPYPGSKVERSQVPNEKVGWLVEWQDYKPVEYTAVSVLAGPRWADPQISESNFSPKFNEKDGHVERKSKNGLYEIENGRPRNPAGRTGLVGRGLLGRWGPNHAADPIITRWKRDSSGNKIMHPVSGKHILQFVAIKRKDCGEWAIPGGMVDPGEKISATLKREFGEEALNSLQKTSAEKREIEEKLHKLFSQDHLVIYKGYVDDPRNTDNAWMETEAVNYHDETGEIMDNLMLEAGDDAGKVKWVDINDKLKLYASHSQFIKLVAEKRDAHWSEDSEADCHAL [Q9BW91]
MCF7; [3]
  percentage of EdU-negative: 26.4 ± 1.5%
MCF7; protein concentration 0.225 µM
  percentage of EdU-negative: 26.1 ± 0.32%
hTERT-HMEC; [3]
  percentage of EdU-negative: 4.99 ± 0.81%
hTERT-HMEC; protein concentration 0.225 µM
  percentage of EdU-negative: 5.67 ± 0.54%

## MRALLLLGFLLVSLESTLSIPPWEAPKEHKYKAEEHTVVLTVTGEPCHFPFQYHRQLYHKCTHKGRPGPQPWCATTPNFDQDQRWGYCLEPKKVKDHCSKHSPCQKGGTCVNMPSGPHCLCPQHLTGNHCQKEKCFEPQLLRFFHKNEIWYRTEQAAVARCQCKGPDAHCQRLASQACRTNPCLHGGRCLEVEGHRLCHCPVGYTGAFCDVDTKASCYDGRGLSYRGLARTTLSGAPCQPWASEATYRNVTAEQARNWGLGGHAFCRNPDNDIRPWCFVLNRDRLSWEYCDLAQCQTPTQAAPPTPVSPRLHVPLMPAQPAPPKPQPTTRTPPQSQTPGALPAKREQPPSLTRNGPLSCGQRLRKSLSSMTRVVGGLVALRGAHPYIAALYWGHSFCAGSLIAPCWVLTAAHCLQDRPAPEDLTVVLGQERRNHSCEPCQTLAVRSYRLHEAFSPVSYQHDLALLRLQEDADGSCALLSPYVQPVCLPSGAARPSETTLCQVAGWGHQFEGAEEYASFLQEAQVPFLSLERCSAPDVHGSSILPGMLCAGFLEGGTDACQGDSGGPLVCEDQAAERRLTLQGIISWGSGCGDRNKPGVYTDVAYYLAWIREHTVS
MCF7; protein concentration 0.009 µM
  percentage of EdU-negative: 27.06 ± 0.031%
MCF7; protein concentration 0.09 µM
  percentage of EdU-negative: 27.973 ± 0.024%
hTERT-HMEC; protein concentration 0.009 µM
  percentage of EdU-negative: 5.23 ± 0.56%
hTERT-HMEC; protein concentration 0.09 µM
  percentage of EdU-negative: 49.1 ± 0.6%

## Q9UBP4
MCF7; [6]
  percentage of EdU-negative: 24.3 ± 2.6%
MCF7; [7]
  percentage of EdU-negative: 25.52 ± 0.066%
hTERT-HMEC; [6]
  percentage of EdU-negative: 5.79 ± 1.3%
hTERT-HMEC; [7]
  percentage of EdU-negative: 6.35 ± 0.93%

## MQWTSLLLLAGLFSLSQAQYEDDPHWWFHYLRSQQSTYYDPYDPYPYETYEPYPYGVDEGPAYTYGSPSPPDPRDCPQECDCPPNFPTAMYCDNRNLKYLPFVPSRMKYVYFQNNQITSIQEGVFDNATGLLWIALHGNQITSDKVGRKVFSKLRHLERLYLDHNNLTRMPGPLPRSLRELHLDHNQISRVPNNALEGLENLTALYLQHNEIQEVGSSMRGLRSLILLDLSYNHLRKVPDGLPSALEQLYMEHNNVYTVPDSYFRGAPKLLYVRLSHNSLTNNGLASNTFNSSSLLELDLSYNQLQKIPPVNTNLENLYLQGNRINEFSISSFCTVVDVVNFSKLQVLRLDGNEIKRSAMPADAPLCLRLASLIEI
MCF7; [8]
  percentage of EdU-negative: 25.8 ± 0.27%
MCF7; protein concentration 0.155 µM
  percentage of EdU-negative: 30.9 ± 1.2%
hTERT-HMEC; [8]
  percentage of EdU-negative: 4.701 ± 0.032%
hTERT-HMEC; protein concentration 0.155 µM
  percentage of EdU-negative: 5.63 ± 0.63%

## MVKQIESKTAFQEALDAAGDKLVVVDFSATWCGPCKMIKPFFHSLSEKYSNVIFLEVDVDDCQDVASECEVKCMPTFQFFKKGQKVGEFSGANKEKLEATINELV
MCF7; [1]
  percentage of EdU-negative: 25.2 ± 1.2%
MCF7; [2]
  percentage of EdU-negative: 23.8 ± 1.9%
hTERT-HMEC; [1]
  percentage of EdU-negative: 4.86 ± 0.3%
hTERT-HMEC; [2]
  percentage of EdU-negative: 4.9 ± 0.23%

## MAGPATQSPMKLMALQLLLWHSALWTVQEATPLGPASSLPQSFLLKCLEQVRKIQGDGAALQEKLVSECATYKLCHPEELVLLGHSLGIPWAPLSSCPSQALQLAGCLSQLHSGLFLYQGLLQALEGISPELGPTLDTLQLDVADFATTIWQQMEELGMAPALQPTQGAMPAFASAFQRRAGGVLVASHLQSFLEVSYRVLRHLAQP
MCF7; [1]
  percentage of EdU-negative: 25 ± 0.82%
MCF7; [2]
  percentage of EdU-negative: 27.5 ± 0.74%
hTERT-HMEC; [1]
  percentage of EdU-negative: 5.19 ± 0.94%
hTERT-HMEC; [2]
  percentage of EdU-negative: 9.86 ± 1.2%

## Q9HBE5
MCF7; [9]
  percentage of EdU-negative: 24.6 ± 3%
MCF7; [10]
  percentage of EdU-negative: 26.38 ± 0.26%
hTERT-HMEC; [9]
  percentage of EdU-negative: 4.85 ± 0.64%
hTERT-HMEC; [10]
  percentage of EdU-negative: 5.88 ± 0.38%

## MARLALSPVPSHWMVALLLLLSAEPVPAARSEDRYRNPKGSACSRIWQSPRFIARKRGFTVKMHCYMNSASGNVSWLWKQEMDENPQQLKLEKGRMEESQNESLATLTIQGIRFEDNGIYFCQQKCNNTSEVYQGCGTELRVMGFSTLAQLKQRNTLKDGIIMIQTLLIILFIIVPIFLLLDKDDSKAGMEEDHTYEGLDIDQTATYEDIVTLRTGEVKWSVGEHPGQE
MCF7; [3]
  percentage of EdU-negative: 25.5 ± 0.14%
MCF7; protein concentration 0.225 µM
  percentage of EdU-negative: 26.8 ± 0.87%
hTERT-HMEC; [3]
  percentage of EdU-negative: 5.71 ± 0.54%
hTERT-HMEC; protein concentration 0.225 µM
  percentage of EdU-negative: 8.95 ± 0.22%
